Holding throughout (settings): 37° C.
The subject of test [1] is cyBCMA. Put plainly: Kinetics and affinity of cyBCMA/human IgG interactions by SPR (Bio-Rad Proteon XPR36). It is filed as binding, cynomolgus. For orientation: In SPR one partner is held on a chip, and binding of the other changes the refractive index at the surface.
Test [2] addresses T1, hBCMA (human BCMA) (Homo sapiens, UniProt Q02223).
T1 sequence (Q02223 1-184): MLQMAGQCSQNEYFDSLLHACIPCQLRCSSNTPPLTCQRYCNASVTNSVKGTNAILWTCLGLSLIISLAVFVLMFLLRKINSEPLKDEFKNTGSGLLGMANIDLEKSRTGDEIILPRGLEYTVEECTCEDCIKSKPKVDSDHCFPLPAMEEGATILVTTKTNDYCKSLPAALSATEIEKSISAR
Nature of the test: Kinetics and affinity of hBCMA/human IgG interactions by SPR (Bio-Rad Proteon XPR36). It is filed as binding. In a few lines: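 First, antibodies are immobilized by amine coupling onto a GLC sensor chip at 25° C. Next, hBCMA is titrated from 0.08 to 50 nM in one cycle, each injection lasting two minutes, in BSA-supplemented HBS-T+ at 37° C. or 25° C. Finally, dissociation runs two hours before kinetic-titration fitting.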

The subject of test [3] is Cyno BCMA. Nature of the test: Kinetics and affinity of cyno BCMA/human IgG interactions by SPR (Bio-Rad Proteon XPR36). It is filed as binding, cynomolgus.

Usually Kd stands for the constant that tells how readily two partners part at equilibrium. A low value points to tighter binding.

B1: L3.PY/L3.KY/H3.YA: anti-BCMA antibody (antibody, V domains shown)
VH: EVQLLESGGGLVQPGGSLRLSCAASGFTFGSYAMTWVRQAPGKGLEWVSAISGSGGNTFYADSVKGRFTISRDNSKNTLYLQMNSLRAEDTAVYYCARVSPIYAGMDYWGQGTLVTVSS
VL: EIVLTQSPGTLSLSPGERATLSCRASQSVSSSYLAWYQQKPGQAPRLLIYGASSRATGIPDRFSGSGSGTDFTLTISRLEPEDFAVYYCKYYPYPPSFTFGQGTKVEIK
In the case of B1, in test [1], the “ka (1/Ms) cyBCMA @ 37° C.” value is 1.84e+06 M⁻¹ s⁻¹ and the “kd (1/s) cyBCMA @37° C.” value worked out at 0.00428 s⁻¹. Besides, in test [2], the “ka (1/Ms) huBCMA @ 37° C.” value was 3.3e+06 M⁻¹ s⁻¹ and the “kd (1/s) huBCMA @37° C.” value came to 0.000912 s⁻¹.

B2: L3.PY/L3.KF/H2.QL: anti-BCMA antibody (antibody, V domains shown)
VH: EVQLLESGGGLVQPGGSLRLSCAASGFTFGSYAMTWVRQAPGKGLEWVSAISGSGGNTFYADQLKGRFTISRDNSKNTLYLQMNSLRAEDTAVYYCARVSPIASGMDYWGQGTLVTVSS
VL: EIVLTQSPGTLSLSPGERATLSCRASQSVSSSYLAWYQQKPGQAPRLLIYGASSRATGIPDRFSGSGSGTDFTLTISRLEPEDFAVYYCKFYPYPPSFTFGQGTKVEIK
On to B2, for which, in test [1], the “ka (1/Ms) cyBCMA @ 37° C.” value turned out to be 1.42e+06 M⁻¹ s⁻¹ and the “kd (1/s) cyBCMA @37° C.” value was 0.0031 s⁻¹. Moreover, in test [2], the “ka (1/Ms) huBCMA @ 37° C.” value was 2.07e+06 M⁻¹ s⁻¹ and the “kd (1/s) huBCMA @37° C.” value was determined as 0.00125 s⁻¹.

B3: L3.PY/L3.KF/H2.DY: anti-BCMA antibody (antibody, V domains shown)
VH: EVQLLESGGGLVQPGGSLRLSCAASGFTFGSYAMTWVRQAPGKGLEWVSAIDYSGGNTFYADSVKGRFTISRDNSKNTLYLQMNSLRAEDTAVYYCARVSPIASGMDYWGQGTLVTVSS
VL: EIVLTQSPGTLSLSPGERATLSCRASQSVSSSYLAWYQQKPGQAPRLLIYGASSRATGIPDRFSGSGSGTDFTLTISRLEPEDFAVYYCKFYPYPPSFTFGQGTKVEIK
As to B3, in test [1], the “ka (1/Ms) cyBCMA @ 37° C.” value was determined as 2.08e+06 M⁻¹ s⁻¹ and the “kd (1/s) cyBCMA @37° C.” value amounted to 0.00368 s⁻¹. Besides, in test [2], the “ka (1/Ms) huBCMA @ 37° C.” value turned out to be 2.74e+06 M⁻¹ s⁻¹ and the “kd (1/s) huBCMA @37° C.” value was 0.00182 s⁻¹.

B4: L3.PY/L3.KF/H2.LT: anti-BCMA antibody (antibody, V domains shown)
VH: EVQLLESGGGLVQPGGSLRLSCAASGFTFGSYAMTWVRQAPGKGLEWVSAISLTGGNTFYADSVKGRFTISRDNSKNTLYLQMNSLRAEDTAVYYCARVSPIASGMDYWGQGTLVTVSS
VL: EIVLTQSPGTLSLSPGERATLSCRASQSVSSSYLAWYQQKPGQAPRLLIYGASSRATGIPDRFSGSGSGTDFTLTISRLEPEDFAVYYCKFYPYPPSFTFGQGTKVEIK
For the molecule B4, in test [1], the “ka (1/Ms) cyBCMA @ 37° C.” value was found to be 1.91e+06 M⁻¹ s⁻¹ and the “kd (1/s) cyBCMA @37° C.” value is 0.00413 s⁻¹. Moreover, in test [2], the “ka (1/Ms) huBCMA @ 37° C.” value turned out to be 2.75e+06 M⁻¹ s⁻¹ and the “kd (1/s) huBCMA @37° C.” value was determined as 0.00191 s⁻¹.

B5: L3.PY/L3.KF/H2.YQ: anti-BCMA antibody (antibody, V domains shown)
VH: EVQLLESGGGLVQPGGSLRLSCAASGFTFGSYAMTWVRQAPGKGLEWVSAISYQGGNTFYADSVKGRFTISRDNSKNTLYLQMNSLRAEDTAVYYCARVSPIASGMDYWGQGTLVTVSS
VL: EIVLTQSPGTLSLSPGERATLSCRASQSVSSSYLAWYQQKPGQAPRLLIYGASSRATGIPDRFSGSGSGTDFTLTISRLEPEDFAVYYCKFYPYPPSFTFGQGTKVEIK
For B5, in test [1], the “ka (1/Ms) cyBCMA @ 37° C.” value came out at 1.41e+06 M⁻¹ s⁻¹ and the “kd (1/s) cyBCMA @37° C.” value stood at 0.00501 s⁻¹. In test [2], the “ka (1/Ms) huBCMA @ 37° C.” value was found to be 1.96e+06 M⁻¹ s⁻¹ and the “kd (1/s) huBCMA @37° C.” value came to 0.00223 s⁻¹.

B6: L3.PY/L3.KY/H3.TAQ: anti-BCMA antibody (antibody, V domains shown)
VH: EVQLLESGGGLVQPGGSLRLSCAASGFTFGSYAMTWVRQAPGKGLEWVSAISGSGGNTFYADSVKGRFTISRDNSKNTLYLQMNSLRAEDTAVYYCTRVSPIAAQMDYWGQGTLVTVSS
VL: EIVLTQSPGTLSLSPGERATLSCRASQSVSSSYLAWYQQKPGQAPRLLIYGASSRATGIPDRFSGSGSGTDFTLTISRLEPEDFAVYYCKYYPYPPSFTFGQGTKVEIK
With B6, in test [1], the “ka (1/Ms) cyBCMA @ 37° C.” value is 1.81e+06 M⁻¹ s⁻¹ and the “kd (1/s) cyBCMA @37° C.” value stood at 0.00192 s⁻¹. Further, in test [2], the “ka (1/Ms) huBCMA @ 37° C.” value was determined as 2.79e+06 M⁻¹ s⁻¹ and the “kd (1/s) huBCMA @37° C.” value came out at 0.000649 s⁻¹.

B7: A02_Rd4_6 nM_C26: anti-BCMA antibody (antibody, V domains shown)
VH: EVQLLESGGGLVQPGGSLRLSCAASGFTFSSYAMNWVRQAPGKGLEWVSAISDSGGSTYYADSVKGRFTISRDNSKNTLYLQMNSLRAEDTAVYYCARYWPMSLWGQGTLVTVSS
VL: EIVLTQSPGTLSLSPGERATLSCRASQSVSSLYLAWYQQKPGQAPRLLMYDASIRATGIPDRFSGSGSGTDFTLTISRLEPEDFAVYYCQQYQVWPLTFGQGTKVEIK
In the case of B7, in test [2] (human BCMA), the “ka Human” value was 4.26e+06 M⁻¹ s⁻¹ and the “kd Human” value is 0.000139 s⁻¹. In addition, in test [3], the “ka Cyno” value amounted to 2.21e+06 M⁻¹ s⁻¹ and the “kd Cyno” value stood at 0.000448 s⁻¹.

B8: A02_Rd4_6 nM_C23: anti-BCMA antibody (antibody, V domains shown)
VH: EVQLLESGGGLVQPGGSLRLSCAASGFTFSSYAMNWVRQAPGKGLEWVSAISDSGGSGWYADSVKGRFTISRDNSKNTLYLQMNSLRAEDTAVYYCARYWPMSLWGQGTLVTVSS
VL: EIVLTQSPGTLSLSPGERATLSCRASQSVSVEYLAWYQQKPGQAPRLLMYDASIRATGIPDRFSGSGSGTDFTLTISRLEPEDFAVYYCQQYARWPLTFGQGTKVEIK
Take B8: in test [2] (human BCMA), the “ka Human” value is 1.22e+07 M⁻¹ s⁻¹ and the “kd Human” value was 0.000255 s⁻¹. Also, in test [3], the “ka Cyno” value came to 2.63e+06 M⁻¹ s⁻¹ and the “kd Cyno” value is 0.000414 s⁻¹.

B9: A02_Rd4_6 nM_C25: anti-BCMA antibody (antibody, V domains shown)
VH: EVQLLESGGGLVQPGGSLRLSCAASGFTFSSYAMNWVRQAPGKGLEWVSAISDSGGSRWYADSVKGRFTISRDNSKNTLYLQMNSLRAEDTAVYYCARYWPMTPWGQGTLVTVSS
VL: EIVLTQSPGTLSLSPGERATLSCRASQSVSSSYLAWYQQKPGQAPRLLMYDASIRATGIPDRFSGSGSGTDFTLTISRLEPEDFAVYYCQQYLDWPLTFGQGTKVEIK
Turning to B9, in test [2] (human BCMA), the “ka Human” value amounted to 2.75e+06 M⁻¹ s⁻¹ and the “kd Human” value worked out at 0.00018 s⁻¹. Moreover, in test [3], the “ka Cyno” value worked out at 1.5e+06 M⁻¹ s⁻¹ and the “kd Cyno” value was determined as 0.00033 s⁻¹.

B10: A02_Rd4_6 nM_C22: anti-BCMA antibody (antibody, V domains shown)
VH: EVQLLESGGGLVQPGGSLRLSCAASGFTFSSYAMNWVRQAPGKGLEWVSAVLDSGGSTYYADSVKGRFTISRDNSKNTLYLQMNSLRAEDTAVYYCARYWPMTPWGQGTLVTVSS
VL: EIVLTQSPGTLSLSPGERATLSCRASQSVSSSYLAWYQQKPGQAPRLLMYDASIRATGIPDRFSGSGSGTDFTLTISRLEPEDFAVYYCQQYQVWPLTFGQGTKVEIK
Turning to B10, in test [2] (human BCMA), the “ka Human” value is 3.38e+06 M⁻¹ s⁻¹ and the “kd Human” value turned out to be 0.000182 s⁻¹. Besides, in test [3], the “ka Cyno” value turned out to be 1.84e+06 M⁻¹ s⁻¹ and the “kd Cyno” value is 0.000324 s⁻¹.

B11: A02_Rd4_6 nM_C07: anti-BCMA antibody (antibody, V domains shown)
VH: EVQLLESGGGLVQPGGSLRLSCAASGFTFSSYAMNWVRQAPGKGLEWVSAIGGSGGSLPYADSVKGRFTISRDNSKNTLYLQMNSLRAEDTAVYYCARYWPMDSWGQGTLVTVSS
VL: EIVLTQSPGTLSLSPGERATLSCRASQSVSPYYLAWYQQKPGQAPRLLMYDASIRATGIPDRFSGSGSGTDFTLTISRLEPEDFAVYYCQQYERWPLTFGQGTKVEIK
With B11, in test [2] (human BCMA), the “ka Human” value stood at 1.48e+06 M⁻¹ s⁻¹ and the “kd Human” value is 0.000189 s⁻¹. In test [3], the “ka Cyno” value worked out at 691000 M⁻¹ s⁻¹ and the “kd Cyno” value was determined as 0.000786 s⁻¹.

B12: A02_Rd4_6 nM_C19: anti-BCMA antibody (antibody, V domains shown)
VH: EVQLLESGGGLVQPGGSLRLSCAASGFTFSSYAMNWVRQAPGKGLEWVSAISDSGGSRWYADSVKGRFTISRDNSKNTLYLQMNSLRAEDTAVYYCARYWPMSDWGQGTLVTVSS
VL: EIVLTQSPGTLSLSPGERATLSCRASQSVSVLYLAWYQQKPGQAPRLLMYDASIRATGIPDRFSGSGSGTDFTLTISRLEPEDFAVYYCQQYLAWPLTFGQGTKVEIK
Consider B12, for which, in test [2] (human BCMA), the Kd was found to be 0.049 nM, the “ka Human” value was found to be 3e+06 M⁻¹ s⁻¹ and the “kd Human” value worked out at 0.000148 s⁻¹. Further, in test [3], binding was put at a Kd of 0.26 nM, the “ka Cyno” value is 2.54e+06 M⁻¹ s⁻¹ and the “kd Cyno” value was 0.000661 s⁻¹.

B13: A02_Rd4_0.6 nM_C03: anti-BCMA antibody (antibody, V domains shown)
VH: EVQLLESGGGLVQPGGSLRLSCAASGFTFSSYAMNWVRQAPGKGLEWVSAISDSGGSKWYADSVKGRFTISRDNSKNTLYLQMNSLRAEDTAVYYCARYWPMSLWGQGTLVTVSS
VL: EIVLTQSPGTLSLSPGERATLSCRASQSVSSSYLAWYQQKPGQAPRLLMYDASIRATGIPDRFSGSGSGTDFTLTISRLEPEDFAVYYCQQYFTWPLTFGQGTKVEIK
For the molecule B13, in test [2] (human BCMA), the “ka Human” value was 4.27e+06 M⁻¹ s⁻¹ and the “kd Human” value came out at 0.000182 s⁻¹. For the same molecule, in test [3], the “ka Cyno” value is 2.12e+06 M⁻¹ s⁻¹ and the “kd Cyno” value turned out to be 0.000426 s⁻¹.

(Values after patent publication US11814435B2, “Therapeutic antibodies and their uses” (PFIZER INC., priority 2015, dated 2023).)
